{"source": "paper PMC7822889", "biological_target": "SpyCatcher003-mi3 VLP", "note": "Values joined by “and” are separate entries in the source; they are usually repeats but may differ in a detail not shown here. Equal values may be shown once."}
{"substance": "SpyTag-RBD (from UniProt P0DTC2 331-529) (domain or fragment)", "values": [{"measurement": "display efficiency", "result": 93, "unit": "%"}, {"measurement": "display efficiency (1:1 molar ratio)", "result": 64, "unit": "%"}, {"measurement": "stoichiometry N", "result": "56 RBDs per VLP and 38 RBD per VLP"}]}
